Data as given in patent EP0607103A2, “Somatostatin analogs containing chelating groups and their radiolabeled compositions” (SANDOZ LTD., priority 1993, dated 1994).

Parameters: species or system rats
Conditions: rat, in vivo
Method: The affinity of the CHELATES OF THE INVENTION for somatostatin receptors can also be shown by in vivo testing, according to standard test methods, e.g. as disclosed in GB-A-2, 225,579. For example the compound of Example 2 gives a tumor accumulation of 1.9 ± 0.4 % injected dose per g (n = 6) 4 hours after injection into rats bearing an exocrine pancreatic tumor.

Molecule `C[C@@H](O)[C@@H]1NC(=O)[C@H](CCCCN)NC(=O)[C@@H](Cc2c[nH]c3ccccc23)NC(=O)[C@H](Cc2ccccc2)NC(=O)[C@@H](NC(=O)[C@@H](Cc2ccccc2)NC(=S)Nc2ccc(CC(CNCCN)CNCCN)cc2)CSSC[C@@H](C(=O)N[C@H](CO)[C@@H](C)O)NC1=O` [Example 2, ^99mTc labelled compound of Example 1, metal not drawn] has a tissue uptake at 4 h of 1.9 ± 0.4 %ID/g.
